# Results from US12134610B2, “Somatostatin subtype-2 receptor (SST2R) targeted therapeutics and uses thereof” (priority 2022, dated 2024).
# Where two headings read alike, the source gives them in different places.
# Tests used:
# SST2 = target: T1, SST2 (Homo sapiens, UniProt P30874); assay: PathHunter CHO-K1 SST2 internalization assay; format: cell-based; settings: PathHunter CHO-K1 SST2, 90 min; read-out: Internalization EC50
# T1 construct: host or cells: PathHunter CHO-K1 SST2 cells
# Procedure, shortened: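 PathHunter CHO-K1 SST2 cells, seeded and grown 48 h, were exposed to 11-point 1:3 dilutions of SMDC (top final 10 uM) for 90 min at 37 C, 5% CO2. Beta-Glo luminescence was read after 60 min at room temperature. Background-corrected duplicate means were fitted by four-parameter nonlinear regression to give IC50.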
# [1] = test system: NCI-H524 (ATCC) human small cell lung cancer cells; format: cell-based; settings: 2 h
# Procedure, shortened: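 NCI-H524 cells (5,000/well) were exposed 24 h after plating to SMDC for 2 h, 11-point two-fold series from 1 uM. After washout they grew a further 70 h. Proliferation was read by CellTiter-Glo luminescence, % inhibition taken vs untreated control, and IC50 fitted by four-parameter nonlinear regression.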
# [2] = target: T2, human somatostatin receptor subtype 2 (Homo sapiens, UniProt P30874); assay: Functional cAMP assay for SSTR2 agonists (HTRF) in CHO-K1 cells; format: cell-based; settings: CHO-K1 cells stably expressing human SST2, 20 min; read-out: hSST2 cAMP Avg EC50
# T2 construct: expressed in transfected cells
# T2 sequence (P30874 whole entry): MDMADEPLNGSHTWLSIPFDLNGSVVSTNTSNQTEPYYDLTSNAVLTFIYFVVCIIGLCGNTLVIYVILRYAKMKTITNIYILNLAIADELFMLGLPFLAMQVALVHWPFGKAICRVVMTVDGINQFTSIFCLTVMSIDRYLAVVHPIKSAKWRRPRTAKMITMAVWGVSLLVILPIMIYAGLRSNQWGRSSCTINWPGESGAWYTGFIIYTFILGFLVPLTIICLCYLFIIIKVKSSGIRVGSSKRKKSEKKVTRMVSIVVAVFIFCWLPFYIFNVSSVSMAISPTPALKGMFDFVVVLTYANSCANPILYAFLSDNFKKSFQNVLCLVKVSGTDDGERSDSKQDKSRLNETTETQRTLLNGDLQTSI
# Procedure, shortened: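 CHO-K1 cells stably expressing receptor, plated 4 days before assay, treated 20 min at 37° C. with compound (typically 0-10,000 nM final) plus IBMX and 1.6 μM NKH477 to raise cAMP. HTRF read, 665/620 nm ratio; cAMP from standard curve, EC50 fitted.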
# [3] = H524 tumor biodistribution model: tumor and plasma levels of SMDC and MMAE by LC/MS-MS; format: in vivo, female Athymic nude mice; settings: H524 tumor bearing nude mice; for level at time molar at 4 h / level at time molar at 24 h: female, Athymic nude, mouse; for level at time molar at 4 h: 4 h after 500 nmol/kg IV; for level at time molar at 24 h: 24 h after 500 nmol/kg IV
# Method: In this example, 5 million H524 (Small Cell Lung Cancer) cells in 1:1 Matrigel: cold Media (RPMI1640) were injected into the subcutaneous (SQ) flank of female Athymic nude mice. Tumor volumes and body weights were measured twice a week. The tumors were allowed to grow until they reached 250-500 mm^3 in size before animals were randomized into groups (n=3/time point). Animals were injected intravenously with a SMDC of the present invention at a single dose of 500 nmol/kg. […] BLQ: Below Limit of Quantitation.
# [4] = MMAE level 4 h after 500 nmol/kg IV of the conjugate
# [5] = MMAE level 72 h after 500 nmol/kg IV of the conjugate
# [6] = MMAE level 168 h after 500 nmol/kg IV of the conjugate
# [7] = plasma, read-out: Conjugate Plasma
# T1 sequence (P30874 whole entry): as above
compound,measurement,setting,value
CC[C@H](C)[C@@H]([C@@H](CC(=O)N1CCC[C@H]1[C@H](OC)[C@@H](C)C(=O)N[C@H](C)[C@@H](O)c1ccccc1)OC)N(C)C(=O)[C@@H](NC(=O)[C@H](C(C)C)N(C)C(=O)OCc1ccc(NC(=O)[C@H](CCCNC(N)=O)NC(=O)[C@@H](NC(=O)CCOCCC(=O)NCCNc2ncc(-c3cc(C)cc(F)c3)c(N3CCC(N)CC3)c2-c2nc3ccc(Cl)cc3[nH]2)C(C)C)c(O[C@@H]2O[C@H](C(=O)O)[C@@H](O)[C@H](O)[C@H]2O)c1)C(C)C [Compound 61],EC50,SST2,12.7 nM
same,EC50,[1],33.2 nM
same,EC50,[2],0.11 nM
same,Conjugate Plasma (nM),[3]; 72 h after 500 nmol/kg IV,BLQ
same,Conjugate Tumor (nM),[3]; 72 h after 500 nmol/kg IV,BLQ
same,Conjugate Plasma (nM),[3]; 168 h after 500 nmol/kg IV,BLQ
same,Conjugate Tumor (nM),[3]; 168 h after 500 nmol/kg IV,BLQ
same,MMAE Plasma,[3]; [4],0.754 nM
same,MMAE Tumor,[3]; [4],75.0 nM
same,MMAE Tumor,[3]; MMAE level 24 h after 500 nmol/kg IV of the conjugate,320 nM
same,MMAE Plasma (nM),[3]; [5],BLQ
same,MMAE Tumor,[3]; [5],267 nM
same,MMAE Plasma (nM),[3]; [6],BLQ
same,MMAE Tumor,[3]; [6],97.8 nM
same,level at time molar at 4 h,[3]; [7],1100 nM
same,level at time molar at 24 h,[3]; [7],56.5 nM
same,level at time molar at 4 h,[3]; read-out: Conjugate Tumor,181 nM
same,level at time molar at 24 h,[3]; read-out: Conjugate Tumor,37 nM
